Results from patent publication EP4717714A1 (Shanghai Junshi Biosciences Co., Ltd., dated 2026).

Key:
[1] = target: T1, Recombinant human VEGFA (Sino Biological, catalog number 11066-HNAB) (human); test: cell-based or functional assay
T1 chain: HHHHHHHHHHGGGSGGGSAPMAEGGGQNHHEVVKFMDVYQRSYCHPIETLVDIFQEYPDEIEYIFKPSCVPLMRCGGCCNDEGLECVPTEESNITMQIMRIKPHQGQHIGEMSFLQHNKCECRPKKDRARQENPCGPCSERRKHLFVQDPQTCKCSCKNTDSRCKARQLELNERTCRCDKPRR

[2] = target: Human PD-1 on the cell surface (Jurkat PD-1 effector cells, Promega); CD4 T cells in the mixed lymphocyte … (human, UniProt Q15116 25-288); test: cell-based or functional assay
[3] = target: T1, Recombinant human VEGFA (Sino …); test: BLI (Octet RED96e), told of the group
[4] = target: T2, Recombinant human PD-1 (prepared by Suzhou Junmeng Biopharm Co., Ltd. according to the sequence of NCBI … (human, UniProt Q15116 25-170, limits assumed)); test: indirect ELISA, human PD-1 coated at 0.3 µg/mL (FIG. 6b)
T2 construct: Soluble recombinant protein used in BLI and coated in ELISA; also called antigen PD-1

[5] = target: T1, Recombinant human VEGFA (Sino …); test: indirect ELISA, human VEGFA coated at 0.5 µg/mL (FIG. 7b)
[6] = target: T1, Recombinant human VEGFA (Sino …); test: indirect ELISA on coated human VEGFA, relative to Avastin control
[7] = target: T1, Recombinant human VEGFA (Sino …); test: BLI (Octet), antibody captured at 5 µg/mL, VEGFA at 25 and 12.5 nM
[8] = target: T2, Recombinant human PD-1 (prepared by …); test: BLI (Octet RED96e), antibody captured at 5 µg/mL, PD-1 at 210 and 70 nM
[9] = target: T2, Recombinant human PD-1 (prepared by …); test: indirect ELISA on coated human PD-1, relative to TAB001 (JS001) control
[10] = target: T1, Recombinant human VEGFA (Sino …); test: competitive ELISA against VEGFR2 on coated VEGFA, relative to Avastin control
[11] = target: T2, Recombinant human PD-1 (prepared by …); test: competitive ELISA, PD-1 coated, competitor Biotin-PD-L1 hFc at 4.0 µg/mL (FIG. 9b)
[12] = target: T1, Recombinant human VEGFA (Sino …); test: competitive ELISA, VEGFA coated, competitor biotinylated VEGFR2 at 0.3 µg/mL (FIG. 8b)
[13] = target: T2, Recombinant human PD-1 (prepared by …); test: competitive ELISA against PD-L1 hFc on coated PD-1, relative to TAB001 (JS001) control

IC50, VEGFA-induced proliferation of HUVEC cells [1]: 150 nM | EC50, PD-1/PD-L1 luciferase reporter gene system (Jurkat PD-1 / CHO PD-L1) [2]: 26.1 nM | Kd [3]: < 0.5 nM | EC50 [4]: 59.5 nM | EC50 [5]: 6.17 nM | Relative binding activity (%) [6]: 57% | Kd [7]: 0.0147 nM | koff [7]: 1.88e-05 s⁻¹ | kon [7]: 1.28e+06 M⁻¹ s⁻¹ | Kd [8]: 1.67 nM | koff [8]: 5.96e-05 s⁻¹ | kon [8]: 35800 M⁻¹ s⁻¹ | Relative binding activity (%) [9]: 31% | Relative binding activity (%) [10]: 163% | IC50 [11]: 573 nM | IC50 [12]: 1860 nM | Relative binding activity (%) [13]: 45%
B1: Bispecific antibody molecule 28 (bispecific antibody, human IgG4 S228P, kappa)
light: EVQLVESGGGLVQPGGSLRLSCAISGFSLAATDIDWVRQAPGKGLEWVARIFSPSDFTDYADSVKGRFTISADTSKNTVYLQMNSLRAEDTAVYYCGRPDTYAYNIFLDTPTYNALHYRGQGTLVTVSSGGGGSGGGGSGGGGSDVVMTQSPLSLPVTLGQPASISCRSSQSIVHSNGNTYLEWYLQKPGQSPQLLIYKVSNRFSGVPDRFSGSGSGTDFTLKISRVEAEDVGVYYCFQGSHVPLTFGQGTKLEIKRTVAAPSVFIFPPSDEQLKSGTASVVCLLNNFYPREAKVQWKVDNALQSGNSQESVTEQDSKDSTYSLSSTLTLSKADYEKHKVYACEVTHQGLSSPVTKSFNRGEC
heavy: not shown
notes: Anti-PD-1 IgG4 (JS001) with the anti-VEGF VHH at the N-terminus of each light chain; also called Antibody 28; antibody 28 (IgG4)
